# Test results published in patent US20230398217A1 (published 2023).
# T1: HA-1 (HMHA1, also known as ARHGAP45; R139H polymorphism, genotype RS_1801284 A/G or A/A) peptide on … (human)
# T1 peptide: VLHDDLLEA
# T2: CCDC114 peptide on HLA-A*02:01 (human)
# T2 peptide: SMIDDLLGV
# Tests used:
# [1] = target: T1, HA-1 (HMHA1, also known as ARHGAP45; …); assay: multimer staining
# [2] = target: T2, CCDC114 peptide on HLA-A*02:01; assay: activation reporter or marker
# [3] = target: T1, HA-1 (HMHA1, also known as ARHGAP45; …); assay: killing
binding result [1],binding result [2],Binder,binding result [3]
recognises,,"HA1-10-104 (TCR, V domains shown) Valpha: AQSVTQPDIHITVSEGASLELRCNYSYGATPYLFWYVQSPGQGLQLLLKYFSGDTLVQGIKGFEAEFKRSQSSFNLRKPSVHWSDAAEYFCAVANAGGTSYGKLTFGQGTILTVHP Vbeta: NAGVTQTPKFRVLKTGQSMTLLCAQDMNHEYMYWYRQDPGMGLRLIHYSVGEGTTAKGEVPDGYNVSRLKKQNFLLGLESAAPSQTSVYFCASGRSGTKFFGPGTRLTVL",
recognises,no recognition,"HA1-TSC-100 (TCR, V domains shown) Valpha: KQEVTQIPAALSVPEGENLVLNCSFTDSAIYNLQWFRQDPGKGLTSLLLIQSSQREQTSGRLNASLDKSSGRSTLYIAASQPGDSATYLCAVRGGTSGTYKYIFGTGTRLKVLA Vbeta: DTGVSQDPRHKITKRGQNVTFRCDPISEHNRLYWYRQTLGQGPEFLTYFQNEAQLEKSRLLSDRFSAERPKGSFSTLEIQRTEQGDSAMYLCASSRTAGDTQYFGPGTRLTVL",
recognises,,"HA1-10-26 (TCR, V domains shown) Valpha: GENVEQHPSTLSVQEGDSAVIKCTYSDSASNYFPWYKQELGKRPQLIIDIRSNVGEKKDQRIAVTLNKTAKHFSLHITETQPEDSAVYFCAASGLGSGAGSYQLTFGKGTKLSVIP Vbeta: DTGVSQDPRHKITKRGQNVTFRCDPISEHNRLYWYRQTLGQGPEFLTYFQNEAQLEKSRLLSDRFSAERPKGSFSTLEIQRTEQGDSAMYLCASSLLAGEKLFFGSGTQLSVL",
,recognises,"HA1-Fred Hutch (TCR, V domains shown) Valpha: KQEVTQIPAALSVPEGENLVLNCSFTDSAIYNLQWFRQDPGKGLTSLLLIQSSQREQTSGRLNASLDKSSGRSTLYIAASQPGDSATYLCAVIGLGGTYKYIFGTGTRLKVLA Vbeta: DTGVSQDPRHKITKRGQNVTFRCDPISEHNRLYWYRQTLGQGPEFLTYFQNEAQLEKSRLLSDRFSAERPKGSFSTLEIQRTEQGDSAMYLCASSLVKGEKLFFGSGTQLSVL",recognises
recognises,,"HA1-10-93 (TCR, V domains shown) Valpha: GENVEQHPSTLSVQEGDSAVIKCTYSDSASNYFPWYKQELGKRPQLIIDIRSNVGEKKDQRIAVTLNKTAKHFSLHITETQPEDSAVYFCPIRQFYFGTGTSLTVIP Vbeta: DTGVSQDPRHKITKRGQNVTFRCDPISEHNRLYWYRQTLGQGPEFLTYFQNEAQLEKSRLLSDRFSAERPKGSFSTLEIQRTEQGDSAMYLCASSLVVVDTQYFGPGTRLTVL",
recognises,,"HA1-2-23 (TCR, V domains shown) Valpha: KQEVTQIPAALSVPEGENLVLNCSFTDSAIYNLQWFRQDPGKGLTSLLLIQSSQREQTSGRLNASLDKSSGRSTLYIAASQPGDSATYLCAVRPTTSGTYKYIFGTGTRLKVLA Vbeta: DTGVSQDPRHKITKRGQNVTFRCDPISEHNRLYWYRQTLGQGPEFLTYFQNEAQLEKSRLLSDRFSAERPKGSFSTLEIQRTEQGDSAMYLCASILVGGTEAFFGQGTRLTVV",
recognises,,"HA1-2-21 (TCR, V domains shown) Valpha: GQQVMQIPQYQHVQEGEDFTTYCNSSTTLSNIQWYKQRPGGHPVFLIQLVKSGEVKKQKRLTFQFGEAKKNSSLHITATQTTDVGTYFCAGPSGNTPLVFGKGTRLSVIA Vbeta: DTGVSQDPRHKITKRGQNVTFRCDPISEHNRLYWYRQTLGQGPEFLTYFQNEAQLEKSRLLSDRFSAERPKGSFSTLEIQRTEQGDSAMYLCASSLLTTNEQFFGPGTRLTVL",
recognises,,"HA1-9-105 (TCR, V domains shown) Valpha: GENVEQHPSTLSVQEGDSAVIKCTYSDSASNYFPWYKQELGKRPQLIIDIRSNVGEKKDQRIAVTLNKTAKHFSLHITETQPEDSAVYFCAVGQNFVFGPGTRLSVLP Vbeta: DTGVSQDPRHKITKRGQNVTFRCDPISEHNRLYWYRQTLGQGPEFLTYFQNEAQLEKSRLLSDRFSAERPKGSFSTLEIQRTEQGDSAMYLCASSPTTINEAFFGQGTRLTVV",
recognises,,"HA1-9-46 (TCR, V domains shown) Valpha: GENVEQHPSTLSVQEGDSAVIKCTYSDSASNYFPWYKQELGKRPQLIIDIRSNVGEKKDQRIAVTLNKTAKHFSLHITETQPEDSAVYFCAASIMRFGAGTRLTVKP Vbeta: DTGVSQNPRHKITKRGQNVTFRCDPISEHNRLYWYRQTLGQGPEFLTYFQNEAQLEKSRLLSDRFSAERPKGSFSTLEIQRTEQGDSAMYLCASSLSVVDEQFFGPGTRLTVL",
recognises,,"HA1-10-34 (TCR, V domains shown) Valpha: GENVEQHPSTLSVQEGDSAVIKCTYSDSASNYFPWYKQELGKRPQLIIDIRSNVGEKKDQRIAVTLNKTAKHFSLHITETQPEDSAVYFCAARGPGTYKYIFGTGTRLKVLA Vbeta: DTGVSQDPRHKITKRGQNVTFRCDPISEHNRLYWYRQTLGQGPEFLTYFQNEAQLEKSRLLSDRFSAERPKGSFSTLEIQRTEQGDSAMYLCASVAGTVYNEQFFGPGTRLTVL",
recognises,,"HA1-6-2 (TCR, V domains shown) Valpha: AQTVTQSQPEMSVQEAETVTLSCTYDTSESNYYLFWYKQPPSRQMILVIRQEAYKQQNATENRFSVNFQKAAKSFSLKISDSQLGDTAMYFCALYSGAGSYQLTFGKGTKLSVIP Vbeta: DTGVSQDPRHKITKRGQNVTFRCDPISEHNRLYWYRQTLGQGPEFLTYFQNEAQLEKSRLLSDRFSAERPKGSFSTLEIQRTEQGDSAMYLCASFELAGGYEQFFGPGTRLTVL",
recognises,,"HA1-1-12 (TCR, V domains shown) Valpha: EDQVTQSPEALRLQEGESSSLNCSYTVSGLRGLFWYRQDPGKGPEFLFTLYSAGEEKEKERLKATLTKKESFLHITAPKPEDSATYLCAVHLNAGGTSYGKLTFGQGTILTVHP Vbeta: DAGVTQSPTHLIKTRGQHVTLRCSPISGHKSVSWYQQVLGQGPQFIFQYYEKEERGRGNFPDRFSARQFPNYSSELNVNALLLGDSALYLCASSFDRGTNGYTFGSGTRLTVV",
